Laboratory results as given in the DeepSol protein solubility set.

Assay: soluble on expression in E. coli; label from the status in PepcDB or PDB records

Sequence | soluble on expression in E. coli
MIGLFNDCFPPIMDGVSLTTQNYAYWLHRKAGNVCVVTPKSPDARDAEEYPVYRYSSVPIPMRKPYRLGFPRIDWPFHERISRLSFELVHAHCPFSSGALAMQIAREQHVPIVATFHSKYRADFERAIPSRLLVNYLIRKVIRFYEAADEVWIPQAAVEETLREYGYKGRIEVVDNGNDFAGTPFLQSVRQEARRTLGIRSGEFMFLFVGQHIWEKNLGFLLDSLVRLSDIPFRMYFVGSGYASHELKQKVVELGLASKVSFVGSIVEREILKRYYVAADLFLFPSLYDNAPLVIREAAALGTPSVLIRDSTASEIISDSVNGFLSPNSTEAYSNRIREILCSTAIIKQVGEEASRTIARSWEDVAGEVYDRYNRLIKRNGNKLEHHHHHH | soluble
MGSDKIHHHHHHTDENETNNGKRTDCYNGTPLTVRATATGFENVPGSEKPSTRASVTDEHLKTEFVDGDSIGIFSIKDSTIVDDINNIPLVYNVSNDSWNPVENSKTLYWYDGASYIAYYPYRKNITLDVSKDTDEAIASLTRNEKLQPSKDQSTKEKHTVSDLLIATGVPTTGNSSGIILNLQFKHQFTLLVLQPQAYIGCFAPENAGFVYHKESRILGTDSAAINVNLNGITPYQIDSVKFCAIVPSQKNARITGSYVTADGRNNTNTKINYSGSSITFASGKCYTLKVISPVPGKGSTERKLYPGDFVFQNETEKRIEIHPGDGMLEENGKIYDYQNAIGMVITCDSKKMTDVKCNENGWNHAYVMGFENLGTGRWGGMERIEEGITPMTKDDEIEKNMNGYSETEQMLKNYTANVQGSYSAFESIRKYRNSNKIPDGLNRSPWFVPSIGQWFDMLVNICGKSPRDFRNETSNGLNDTGWGQETLDKLTIQLSKVGNSLPQFSDTYRLGFSCSSQYDKDRCWMLLWHIDDPEYPNWDRVCLQGYDKKAYWNVRPFFAF | not soluble
MEENLERTESLAREADDCHPIFRIAPSTVEFNKLRKRLLRHIRQAFDDFSMLSSGKKWLVALSGGKDSYGLLALLLDLKWRGLLPVEILACNLDQGQPGFPKHILPDFLNSYQIPHRIEYQDTYSIVTDKLVHTQTYCSLCSRLRRGNLYRIAREEGCSALVLGHHRDDVLETFFMNLFHGGRLAAMPGKLINDEGDLFVLRPLVYAAEEDMEKFSQAMQFPIIPCNLCGSQDGLQRNAMKEMLKDIERKMPGRKDTMIRALTNVRPSHLLDKKFFDFKNLF | not soluble
MKKHGVLNSEIAAVLASLGHTDTVVIADCGLPIPDGVKRIDLAVEIGKPSFLEVLQVVADDMAIEKVTLAEEVIINNAEVNKEIERKLIEPAFEYVSHEQFKEHTKKAKAIIRTGEATPYANVILHAGVIF | not soluble
MAHHHHHHMRSNGAAHIGNNTFLAVTRDVTDTAFLFSSSFSPAEQLVRLPLSRKTRFLPHASLACGEAERSEYAESAARAGPPTKDVDVKEAVASAAAASTPLFCHSAHASPDGHKIAFISNVRRHHYIIDISVLPAAVCELEMPEVVQSVCWHTVAHHALCVLFISGDLTIYDTDQSYLGVIVPLYRRIALRPVIERRLADAEAAVHPSPSIPSTAPGTISPAKGATALDKEEVQSTRVKALAGKVSTTRLPPARQAHATTAEVAGFRSLVLHSGGGAIVAGSDIAHSPSYAVAERIDHDEMVPVSSADEVGAEGAASCPPIPKPVMLPTSQLDLVDMYALPPTESIPVILLLSSSGDVYAVHLGDDCLPVVATAAATDDGRVRTREEEVLRRAEVAAAPLSVEVYHLISGDSTGAAGDEAVAVGGCLVDEDAGTHAVFFLTANGLVKGAWVSKPDLLARHRVAHVRAVGSPNISFTLHLSGSLGARASLAPAVPSITHSVSMTLSQNVCVVRSGVAGETAFVMAFPRWDRRRQGWACWRPACADAREREREAAALPLLSTDAAPPSPVALRLPYDTRDSSIAVGCTELLLVPEVSTMDGLCERGSILVISLAAVLRSALYARCGKLGLHPSAGAGATSRLRDPHPAVLDLLNAVPECHRCWLRGVPEAEMSAATLNLVRRIEQLSGDVNRREMVQAQRRRRLVARVANLEGRVAEMDGMLAEWRQIILDGIVHRRGGDAFRTANARLRKVSTMLNELEQQL | not soluble
MSETKNITVPEINKTVEQMLIKGRWLDALDFWINNTDSLVLIRWLAQFISQLSPEEDSLLLQSIVRWKEGDDEQRWEIFRHAESVGFSTQTGALGVSLFVSQGSLSPAPYDPVYAPSCSEKKIIYGILMHQSNKYYDAPDEGVFFLFRHWCNSHS | not soluble
MGSDKIHHHHHHMLFRASRSDMSNLTNCITNESVAVTADKKPVIGRIHSFESCGTVDGPGIRFITFFQGCLMRCLYCHNRDTWDTHGGKEITVEDLMKEVVTYRHFMNASGGGVTASGGEAILQAEFVRDWFRACKKEGIHTCLDTNGFVRRYDPVIDELLDVTDLVMLDLKQMNDEIHQNLVGVSNHRTLEFAQYLSKKNVKVWIRYVVVPGWSDDDDSAHRLGEFTRDMGNVEKIELLPYHELGKHKWVAMGEEYKLDGVKPPKKETMERVKGILEQYGHKVMY | not soluble
MGEIQVVAFRLGDEEFCLEISKVREIKEMMPITRVPNAPDFVEGVINLRGQITTVINLKKLLGYYDDGDLSNKKIIIAEVNGEIVGVIVDSVSDVITLTEDQIEQPPKTLASRVDMKAIKGIAKINNGERLLIMLDLDKLIGESF | soluble
MTDRKIRQISALLIEVYNGIMQVEDKYLRTTQFRDITVKEVHTIDAITMYDYKTTTAVARQLRLSPGTVTASIDKLVRKGYVVRLQSKDDQRVIRLGLTRRGRLIYRAHQSFHRQMTESFLNGMDPEQVDIIEHSLLNLQTFLQIADEKGDSNEND | not soluble
MLSEVEFVEFQKENFSLLIDARSPREFLHSHLIGALNFYALNDEEYQEIGTIYKKNQALAKAMGASYICQNTTKHILEITQNFRIGEKVGIYCSRGGLRSKSIAVILSELGFRVVRLKGGFKAYRTFVTHYFENEINFDFFALCGNTGCGKTELLEQLPQAINLEKMANHLGSSFGDILGKQPTQKAFEAELFHNIQNLENFAFIESESRKIGDIILPLKFYEKMQKAFKIYCFCSLENRVRRIQKIYQEKMTPLKFQQCVQKISPYISLNLRQDLLQSYERKEWQKLIVMLLEYYDKTYKKPDKIDLELNTDDILKAKEELLDHFKVQLLF | not soluble
QQGNPNLSSPQPILDTIYKLLSEQEQTLVQMIHEQSLLLNRLPPTLDENSLAPLKSLSQKQITLSGQMNTEMSALDATKKGMILEPTDLAKLFALKQDLQIQFKQLSLLHNEIQSILNPQHSAPKPNVALVLKSQPFPVVISKGKQLGENQLVVLVLTGARSNFHINGPVKATMICDSHPTNKNNPTTPLEMDSQPIYPATLTAHFPLKFLAGTRKCSVNLKFGVNIRDLDNVTTTVESDASNPFVVITNECQWEGSAGVLLKKDAFDGQLEITWAQFINTLQRHFLIATKQDPVRPKRPLSSYDLKYIQTHFFGNRSIIHQQDFDKFWVWFGKSMQTLRYQRHISTLWQEGIIYGYMGRQEVNDALQNQDPGTFIIRFSERNPGQFGIAYIGVEMPARIKHYLVQPNDTAAAKKTFPDFLSEHSQFVNLLQWTKDTNGAPRFLKLHKDTALGSFAPKRTAPVPVGGYEPLNS | soluble
MSLSGIFNWSLDVFADIYNTLKFESNIDLDTIDFTSIKNDLANVLITPVPLDQSRSKLGDASKPVALPSGDEVKLNQASIEITGVLSNELDLDELNTAELLYNASDLSYKKGTSIGDSARLAYYLRAHYILNIVGYLVSHKRLDIITNNNQVLFDNILKSFSKIYTLSGKLNDMIDKQKVTGDINNLAFINCINYSRSQLFNAHELLGQVVFGLADNYYESYGTLNNYKSLVEFILKNISDEDVFVIHFLPSTLQLFKKLLQLGEESLVDQFYKTITSSILKDYEANNFSKSEDIDLSKSKLSGFEIVTSFIFLTEFIPWCKQLSSRTAKYDFKDDILKYMEFLISYGVMERLLSYCSETANAKTQQVYDWSNMYDFRALLQKNFPRLTPAKFHYPGNQELLNAVRPGYENVSKLIDISFLTLDPSLNETLVSPFFQSFFSVFISNAAVVMTSLRDSEEDFVLSSLNESDEGHHHHHH | soluble
MKLSIVIVNYRVPYFLEQCLLSVRKSAQGIDTEVWVVDNNSGDGSVEYLQSRFPEVHFVANEENVGFSRANNQAIRLSKGQYVLLLNPDTLIGESTLRTVVDFMDSKPNAGGLGVKMLNGHGRFLPESKRGFPSPWVSFCKLSGLNRLFPHSSRFNRYHLSYLSRDEVHKVEVLSGAFMLMRREALDKVGLLDERFFMYGEDIDLSYRLILGGYDNYYYPTPILHYKGESSSVSDVKYLRSFYGAMGLFFDKYYRNRMNPLLHGLINVVIKARTALALMLRSLRKVPAAEKPAKIFYWHPSEGEAAISAYHDRSHILINTDEVTCDRLLLTMEKLADRKHTFHLTNDTTKRVISP | not soluble
MAHHHHHHMETENVPLENEENQNENYEQEENTLAQEAEIVLITTSLGGIKSSFFSSLRAHQLLNCKKYIYFSIDANRDTSSAKNLKDIELFNKWKKGMILLSNENGIVLPQILIDGVPLGNDVTLQNLEDEGILDYIIARLKCPNCLIDKSNIEERCPGCKKYYVTLITDDLIQNDSVIRILQGEPYKEPENE | soluble
MRTNVPDQQSTVQKLLDENSRLIDIIQEYLNQSRADEAIKHQQLLHRNLLHLSNLADPFLLSQLKDDGTAAAALPDPNQQQPQPGASGPPAPHLQQQQPQHSPQQGHPHPQQGLPAAHHRQQMMPPQAAPSPGGPMQPPHGFAPPPMGGGVPPEMMNHQAYQAQMRQQQQQPNGQAPPPVYPPFGQPAPQMSGQRMPYPYPPQGMPGYPGGPPPPPHGYEGYPPPGAQPGYMR | soluble
MAPPAQPPPVAVKNTKEAWTKFMKKKAEQAVYPSKESSTLQPKYLFDASTLVLPMCFECRRASRHLEMAINLCSICRANFEAQIASRFFRHDVLLVKRKLEANQDTTNLKE | not soluble
MNYPLIFAENQRIETERLILRPVTLADAEDMYEYASDEETVRYVFLKNQTIAETRQNIAKFFMGEPLGKYGIEVKETGKMIGTIDLRVNETNNIGELGYVLNRTFWGNGYMPEAATALVELGFAKMKLMRIFALHDQDNPASGRVMEKIGFTYEGTLPNARISKGKIVTDVYRGMTLETWQNRQK | soluble
MIDKKTYNEIGVHIPSILLPKEGIDMQKWSVVACDQYTSEPEYWEEVEKKVGDNPSTLHLIFPEIYLEHGNADERIKRINNEMKRYINEGILVSQKPCMLLVDRSTPHTKSRKGLILAVDLEKYDYSAGSQTLIRATEGTVIERLPPRVKIRENAILELPHVMLLIDDPDKTVIEPLAGKLDSFEKVYDFELMMNGGHIRGYRIDDGETLKGILKAIEALADPEVFKSKYKVGDDKGVLLFAVGDGNHSLASAKVHWENVKKSLSEAEVEDHPARFALVEVVNVHDDGIVFEPIHRVLFNIEPESVLNALQDFFGSSCCSLEKFDSLESVNKRLSELKREEAVHSFGFVTDRSFGVFTVQNLKHNLEVATLQGFLDYYLGKQKEAKVDYIHGEDVVTKLGSKPGNIGFYLPSMEKHDLFKTVILDGVLPRKTFSMGEAEEKRFYLECRKIVKD | soluble
MARILVIEDEPLVGHMLRRFLERAGHDVVWAPNGEVGLRRLAEGFDLVVCDLIMPGIPGEEVIRRIREEAGPPVLAVSASVSRESQRRALEAGAQAFLGKPFEAQAFLRVVEGLLRGT | soluble
MTQVPPSASPADLLAVLERIATALERQGAPAVPANSLDGADAFVWHAAESWLEPVCRVNRVDIALLQGIERQRQTLYDNTLRFAHGLPANNALLWGARGTGKSSLVKAVHASVNQALTAKGAAPVALVEIHREDIPTLPRLLRILAASGRPCLLFCDDLSFDGNDSSYKSLKAVLEGGIEGRPDTVIFYATSNRRHLLAREMVENEQSTALHAGEAVEEKVSLSDRFGLWLGFHNVDQPTYFDIVDGYARAYGLDIETEDLHREAREWSMARGSRSGRTAWQFIQDLAGRLGKTLELEHHHHHH | soluble
